Changes are numbered by the printed parent chain.
T1: Notch3 (EGF5-12) (Homo sapiens, UniProt Q9UM47)
T1 construct: hNotch3 (EGF5-12, residues 197-505); gp67 signal peptide (N); made in house; host or cells: HiFive Trichoplusia ni insect cells (baculovirus)
T1 sequence (Q9UM47 197-505): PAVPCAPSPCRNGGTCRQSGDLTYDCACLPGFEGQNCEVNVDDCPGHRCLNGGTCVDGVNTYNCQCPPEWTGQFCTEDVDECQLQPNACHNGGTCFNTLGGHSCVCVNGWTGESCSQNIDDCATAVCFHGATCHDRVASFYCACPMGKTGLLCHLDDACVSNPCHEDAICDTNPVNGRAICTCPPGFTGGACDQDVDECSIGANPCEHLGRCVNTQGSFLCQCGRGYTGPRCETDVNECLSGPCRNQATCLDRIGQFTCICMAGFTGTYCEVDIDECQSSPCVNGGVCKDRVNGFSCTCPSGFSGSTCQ

T2: Notch2 (EGF6-13) (Homo sapiens, UniProt Q04721)
T2 construct: hNotch2 (EGF6-13, residues 221-530); gp67 signal peptide (N); made in house; host or cells: HiFive Trichoplusia ni insect cells (baculovirus)
T2 sequence (Q04721 221-530): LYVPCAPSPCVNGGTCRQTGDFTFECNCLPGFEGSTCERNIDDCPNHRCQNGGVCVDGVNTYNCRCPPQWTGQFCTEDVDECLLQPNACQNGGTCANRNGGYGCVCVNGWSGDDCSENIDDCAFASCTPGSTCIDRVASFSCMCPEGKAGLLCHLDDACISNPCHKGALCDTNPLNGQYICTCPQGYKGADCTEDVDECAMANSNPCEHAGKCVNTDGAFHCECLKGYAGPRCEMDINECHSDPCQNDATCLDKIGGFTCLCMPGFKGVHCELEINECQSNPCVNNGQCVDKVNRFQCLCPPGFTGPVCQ

T3: Notch4 (7-12) (Homo sapiens, UniProt Q99466)
T3 construct: hNotch4 (EGF7-12, residues 276-511); gp67 signal peptide (N); made in house; host or cells: HiFive Trichoplusia ni insect cells (baculovirus)
T3 sequence (Q99466 276-511): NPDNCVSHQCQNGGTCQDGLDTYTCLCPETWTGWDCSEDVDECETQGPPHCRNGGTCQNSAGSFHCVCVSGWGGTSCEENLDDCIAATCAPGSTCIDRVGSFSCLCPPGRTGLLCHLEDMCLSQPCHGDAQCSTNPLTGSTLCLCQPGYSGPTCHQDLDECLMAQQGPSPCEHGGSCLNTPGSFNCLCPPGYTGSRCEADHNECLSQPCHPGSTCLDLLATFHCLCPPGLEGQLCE

T4: mouse Notch1 (EGF6-13) (Mus musculus, UniProt Q01705)
T4 construct: mouse Notch1 (EGF6-13, residues 221-526); gp67 signal peptide (N); made in house; host or cells: HiFive Trichoplusia ni insect cells (baculovirus)
T4 sequence (Q01705 221-526): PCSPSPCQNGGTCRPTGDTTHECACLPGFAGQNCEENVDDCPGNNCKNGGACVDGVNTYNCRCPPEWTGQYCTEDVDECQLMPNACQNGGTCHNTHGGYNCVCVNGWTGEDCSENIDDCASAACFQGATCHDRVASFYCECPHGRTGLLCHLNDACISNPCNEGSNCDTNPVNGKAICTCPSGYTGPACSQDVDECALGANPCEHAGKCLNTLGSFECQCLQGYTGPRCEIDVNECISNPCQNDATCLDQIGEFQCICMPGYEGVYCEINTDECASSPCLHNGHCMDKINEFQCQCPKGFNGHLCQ

B1: Delta^MAX: engineered human DLL4 consensus variant with 10 mutations combining DLL4.v1 and DLL4.v2 mutations; sequence matches SEQ ID NO: 4/10 (protein)
chain: SSVFQLQLQEFINERGVLASGRPCEPGCRTFFRVCLKHFQAVVSPGPCTFGTVSTPVLGTNSFAVRDDSSGGGRNPLQLPLNFTWPGTFSLIIEAWHAPGDDLRPEALPPDALISKFAIQGSLAVGQNWLLDEQTSTLTRLRYSYRVICSDNYYGDNCSRLCKKRNDYFGHYVCQPDGNPSCLPGWTGEYCQQPICLSGCHEQNGYCSKPAECLCRPGWQGRLCNECIPHPGCRHGTCSTPWQCLCDEGWGGLYCDQDLNYCTHHSPCKNGATCRNSGPRSYTCTCRPGYTGVDCELELSECDSNPCRNGGSCKDQEDGYHCLCPPGYYGLHCEHSTLSCADSPCFNGGSCRERNQGANYACECPPNFTGSNCE
B2: WT DLL4: human wild-type Delta-like 4 (N-EGF5, residues 27-400), SEQ ID NO: 1 (protein)
chain: B1 chain with S2G, L81F, F117I, Y168H, P180L, P231N, L245T, Y254F, R275S, P279Q

What was measured:
Notch3 (EGF5-12) = target: T1, Notch3 (EGF5-12); assay: SPR determination of equilibrium dissociation constants; type: binding
Experimental: (§1) Equilibrium dissociation constants were determined by surface plasmon resonance using a Biacore T200 instrument (GE Healthcare). Approximately 100 resonance units (RU) of biotinylated Notch extracellular fragments (Notch1 (EGF6-13), Notch2 (EGF6-13), Notch3 (EGF5-12), Notch4 (7-12), and mouse Notch1 (EGF6-13)) were immobilized on individual flow cells at 5 μl/min using a streptavidin-coated sensor chip (Series S Sensor chip SA, GE Healthcare). Three-fold serial dilutions of recombinant DLL4 proteins (N-EGF5) starting at 50 μM (WT DLL4), 18 μM (DLL4.v2), and 6 μM (DLL4.v1 and Delta^MAX) were flowed over the chip at 25° C. in SPR buffer (20 mM HEPES pH 7.4, 150 mM NaCl, 1 mM calcium chloride, 0.1% BSA supplemented with 0.005% surfactant P20). Association (“on-rate”) and dissociation (“off-rate”) phases were performed at 10 μl/min for 120 seconds and 300 seconds, respectively. The sensor chip was regenerated after each injection with 30-second washes of 2.25M Magnesium Chloride containing 25% Ethylene Glycol at 50 μL/min. Data collection rate was performed at 10 Hz, and curves were reference-subtracted from a flow cell containing 100 RU of a negative control non-related protein (biotinylated mouse RNF43 PA domain). The maximum RU for each experiment was normalized to a value of 100% and plotted as a function of concentration using Prism 9 software (GraphPad). Steady-state binding and kinetic curves were fitted using the Biacore T200 evaluation software to a 1:1 Langmuir model to determine the KD values.

Notch2 (EGF6-13) = target: T2, Notch2 (EGF6-13); assay: as above; type: binding
Experimental: as §1

Notch4 (7-12) = target: T3, Notch4 (7-12); assay: as above; type: binding
Experimental: as §1

mouse Notch1 (EGF6-13) = target: T4, mouse Notch1 (EGF6-13); assay: as above; type: binding; conditions: mNotch1 EGF6-13; read-out: dissociation constant (KD)
Experimental: as §1

Notch1 (EGF6-13) = assay: as above; type: binding, human
Experimental: as §1

CD8+ T cells = assay: Co-culture assay for T cell proliferation (K32 aAPCs expressing ligand); type: cell-based, human; conditions: along the OKT3 concentrations, 96 h, vs K32 lacking DLL4 ligands (mock)
Experimental: Functional assays for human CD8^+ T cells were performed in co-culture with K562 cells expressing human CD32 (K32 cells) generated as described before7. Briefly, cells were γ-irradiated (100Gy) and washed twice with PBS before being loaded with OKT3 (0.0125-0.5 μg/mL, BioXcell) antibody at RT for 10 min. Human CD8^+ T cells were negatively isolated from PBMC and labeled with 5 μM of Cell Trace Violet (Invitrogen) according to manufacturer's specifications. Next, CD8^+ T cells were co-cultured with K32 cells at ratio 1:10 (T cell:K32). The frequency of proliferating T cells was determined after 96 hours by flow cytometry using a CytoFLEX II (Beckman Coulter). Zombie Green (Biolegend) was used for life/dead cell staining to discard dead cells from the analysis. A set of samples were additionally incubated with Golgi stop (BD) at 0.5 μL/well for 5 hours and washed with PBS for detection of intracellular IFNγ using anti-hIFNγ APC antibody (Biolegend). The frequency of IFNγ positive cells was analyzed by flow cytometry (CytoFLEX II, Beckman Coulter). Dead cells were excluded from the analysis by staining with Zombie green (Biolegend). The data represent the mean percentage of proliferating T cells or IFNγ^+ T cells±s.e.m. of four independent biological replicates.

[1] = SPR, 25° C., ligand N-EGF5, read-out: dissociation constant (KD)

Sequence of Notch1 (EGF6-13) (P46531 257-526 limits assumed): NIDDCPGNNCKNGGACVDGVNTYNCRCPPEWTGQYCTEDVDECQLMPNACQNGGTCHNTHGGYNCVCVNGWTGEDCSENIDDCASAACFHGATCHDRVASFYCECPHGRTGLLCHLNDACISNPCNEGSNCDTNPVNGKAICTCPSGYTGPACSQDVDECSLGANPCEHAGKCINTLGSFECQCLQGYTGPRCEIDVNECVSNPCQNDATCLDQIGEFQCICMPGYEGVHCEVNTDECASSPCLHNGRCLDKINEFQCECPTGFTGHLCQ

Molecule | enhancement of affinity compared to WT DLL4 (Notch3 (EGF5-12); Notch3) | Kd (Notch3 (EGF5-12); [1]) | enhancement of affinity compared to WT DLL4 (Notch2 (EGF6-13); Notch2) | Kd (Notch2 (EGF6-13); [1]) | enhancement of affinity compared to WT DLL4 (Notch4 (7-12)) | Kd (mouse Notch1 (EGF6-13)) | enhancement of affinity compared to WT DLL4 (Notch1 (EGF6-13); Notch1) | Kd (Notch1 (EGF6-13); [1]) | off-rate from fitted SPR sensograms (Notch1 (EGF6-13); series DLL4.v1, DLL4.v2, Delta^MAX, FIG. 2C Notch1 EGF6-13) | binding affinity compared to WT DLL4 (Notch1 (EGF6-13); stated for all four human Notch receptors (Notch1-4)) | enhancement of the percentage of proliferating CD8+ T cells (CD8+ T cells)
B1 | 591 fold | 0.049 µM | 670 fold | 0.054 µM | 532 fold | 0.025 µM | 1,029 fold | 0.024 µM | progressive decreases in off-rate | enhanced affinity | 
B2 |  |  |  |  |  |  |  |  |  |  | did not show a significant improvement
